US20230220346A1, “BIOLOGICALLY SYNTHESIZED HYDROXYAPATITE FOR BONE REGENERATION AND TISSUE ENGINEERING” (BIOVENTURES, LLC, priority 2019, published 2023)

B1: SAP: shrimp hepatopancreas alkaline phosphatase (protein, listed as Pandalus borealis)
chain: MIGRTTFIALFVKVLTIWSFTKGEDCVWDNDVDYPEYPPLILDSSFQLVLPVLEGDQRITSVQSGSELILACPGREISALGSEDAQATCLGGKLVEVDGKEWNIVELGCTKMASETIHRNLGQCGDQDLGIYEVIGFDLPTTGHFYELIRVCFDPANETTIFSENIVHGASIAAKDIDPGRPSFKTSTGFFSVSMISVYSQRNQLELMKNLLGDDELAATIIDPSKQFYFAKGHMAPDADFVTVVEQDATYYYINALPQWQAFNNGNWKYLEYDTRDLAEKHGTDLTVYSGGWGVLELEDINGNPVEIYLGLAQDKKVVPAPALTWKVIYEKDTNRAAAIVGINNPHITTAPEPLCTDICSSLTWLDFDFGDLVHGYTYCCSVADLRAAIPNVPDLGDVDILDE
modifications: (1)..(404) Shrimp alkaline phosphatase (rSAP)
B2: CIP: calf intestinal alkaline phosphatase (protein, listed as Bos taurus)
chain: MQGACVLLLLGLHLQLSLGLVPVEEEDPAFWNRQAAQALDVAKKLQPIQTAAKNVILFLGDGMGVPTVTATRILKGQMNGKLGPETPLAMDQFPYVALSKTYNVDRQVPDSAGTATAYLCGVKGNYRTIGVSAAARYNQCKTTRGNEVTSVMNRAKKAGKSVGVVTTTRVQHASPAGAYAHTVNRNWYSDADLPADAQMNGCQDIAAQLVNNMDIDVILGGGRKYMFPVGTPDPEYPDDASVNGVRKRKQNLVQAWQAKHQGAQYVWNRTALLQAADDSSVTHLMGLFEPADMKYNVQQDHTKDPTLQEMTEVALRVVSRNPRGFYLFVEGGRIDHGHHDDKAYMALTEAGMFDNAIAKANELTSELDTLILVTADHSHVFSFGGYTLRGTSIFGLAPSKALDSKSYTSILYGNGPGYALGGGSRPDVNDSTSEDPSYQQQAAVPQASETHGGEDVAVFARGPQAHLVHGVEEETFVAHIMAFAGCVEPYTDCNLPAPTTATSIPDAAHLAASPPPLALLAGAMLLLLAPTLY
modifications: (1)..(533) Bovine intestine alkaline phosphatase (CIP)
B3: ALPL: Recombinant human tissue-nonspecific alkaline phosphatase (R&D Systems) (protein, listed as Homo sapiens)
chain: MISPFLVLAIGTCLTNSLVPEKEKDPKYWRDQAQETLKYALELQKLNTNVAKNVIMFLGDGMGVSTVTAARILKGQLHHNPGEETRLEMDKFPFVALSKTYNTNAQVPDSAGTATAYLCGVKANEGTVGVSAATERSRCNTTQGNEVTSILRWAKDAGKSVGIVTTTRVNHATPSAAYAHSADRDWYSDNEMPPEALSQGCKDIAYQLMHNIRDIDVIMGGGRKYMYPKNKTDVEYESDEKARGTRLDGLDLVDTWKSFKPRYKHSHFIWNRTELLTLDPHNVDYLLGLFEPGDMQYELNRNNVTDPSLSEMVVVAIQILRKNPKGFFLLVEGGRIDHGHHEGKAKQALHEAVEMDRAIGQAGSLTSSEDTLTVVTADHSHVFTFGGYTPRGNSIFGLAPMLSDTDKKPFTAILYGNGPGYKVVGGERENVSMVDYAHNNYQAQSAVPLRHETHGGEDVAVFSKGPMAHLLHGVHEQNYVPHVMAYAACIGANLGHCAPASSAGSLAAGPLLLALALYPLSVLF
modifications: (1)..(524) Human tissue nonspecific alkaline phosphatase (ALPL)

Experiments:
Saos-2 cell line = assay: Alizarin Red S (ARS) biomineralization assay in Saos-2; type: cell-based, human; settings: MEMα/10% FBS with βGP (2 mM) plus the ALP (1 U/mL), 7 days
Description: (§1) Biomineralization assays and Alizarin Red S staining: All human and mouse cell lines and human peripheral blood mononuclear cells (MNCs) were maintained in MEMα/10% FBS with penicillin/streptomycin and glutamine in a 37° C. humidified incubator with 5% CO2. […] The medium was replaced after 4 days. Alizarin Red S staining was performed at room temperature by removing the culture medium, washing the cells twice with 1×PBS (pH 7.4), fixing the cells in 10% neutral buffered formalin (Richard-Allan Scientific, Kalamazoo, Mich., USA) for 30 min, rinsing twice with Milli-Q water, staining with Alizarin Red S for 30 min, and destaining twice in Milli-Q water. A ZEISS inverted fluorescence/brightfield microscope equipped with an Infinity 3 digital camera and software system was used for imaging.

MG-63 cell line = assay: Alizarin Red S (ARS) biomineralization assay in MG-63; type: cell-based, human; settings: MEMα/10% FBS with βGP (2 mM) plus the ALP (1 U/mL), 7 days
Description: as §1

[1] = tested on: human blood mononuclear cells (MNCs); assay: Alizarin Red S biomineralization assay in human blood mononuclear cells; type: cell-based; settings: MEMα/10% FBS with αGP alone or CIP alone (the other missing), 7 days
Description: as §1
Coating cell culture plate with Collagen Type I, rat tail for mineralization assays: To coat a 48-well plate with Collagen Type I at 5 μg/cm^2, the stock solution was diluted to 25 μg/mL in 17.5 mM of acetic acid and aliquoted […] into each well. After incubating at room temperature for one hour, the Collagen Type I solution was removed. Each well was rinsed with 1×PBS (pH 7.4) and air-dried at room temperature. Human blood MNCs were suspended in the conditioned media and distributed into each well (1×10^5 cell/well) prior to a 7-day incubation. […]

[2] = tested on: MG-63 and Saos-2 cell lines; assay: Alizarin Red S biomineralization assay: phosphate source comparison, titration, ascorbic acid (FIG. 1A, 1C, 1E-G); type: cell-based, human; settings: FIG. 1E-G
Description: as §1

Molecule	biomineralization (Alizarin Red S staining) (Saos-2 cell line)	biomineralization (Alizarin Red S staining) (MG-63 cell line)	biomineralization (Alizarin Red S staining) [1]	dose dependence of biomineralization (titration assays) [2]
B1	mineralized	mineralized	–	–
B2	mineralized	mineralized	did not occur	depended on the doses
B3	biomineralization was observed	biomineralization was observed	–	–
